Measurements from patent US20140120095A1 (Boehringer Ingelheim, published 2014).
Blank lines part the entries; values can stand above or below the binder they belong to.

Columns and labels:
recombinant human DLL4 [1] = target: T1, recombinant human DLL4 (human, UniProt Q9NR61 25-522); assay: Biacore off-rate, periplasmic extract
T1 construct: also called rhDLL4; hDLL4

recombinant human DLL4 [2] = target: T1, recombinant human DLL4; assay: hDLL4 ELISA screen, periplasmic extract
recombinant human DLL4 [3] = target: T1, recombinant human DLL4; assay: AlphaScreen biot-hDLL4/hNotch1-Fc, periplasmic extract
[4] = target: T2, cynomolgus DLL4 expressed on CHO cells (cynomolgus, UniProt Q9NR61 27-685 (human entry)); assay: FACS on CHO-cDLL4 cells
T2 construct: also called cDLL4; CHO-cDLL4
T2 chain: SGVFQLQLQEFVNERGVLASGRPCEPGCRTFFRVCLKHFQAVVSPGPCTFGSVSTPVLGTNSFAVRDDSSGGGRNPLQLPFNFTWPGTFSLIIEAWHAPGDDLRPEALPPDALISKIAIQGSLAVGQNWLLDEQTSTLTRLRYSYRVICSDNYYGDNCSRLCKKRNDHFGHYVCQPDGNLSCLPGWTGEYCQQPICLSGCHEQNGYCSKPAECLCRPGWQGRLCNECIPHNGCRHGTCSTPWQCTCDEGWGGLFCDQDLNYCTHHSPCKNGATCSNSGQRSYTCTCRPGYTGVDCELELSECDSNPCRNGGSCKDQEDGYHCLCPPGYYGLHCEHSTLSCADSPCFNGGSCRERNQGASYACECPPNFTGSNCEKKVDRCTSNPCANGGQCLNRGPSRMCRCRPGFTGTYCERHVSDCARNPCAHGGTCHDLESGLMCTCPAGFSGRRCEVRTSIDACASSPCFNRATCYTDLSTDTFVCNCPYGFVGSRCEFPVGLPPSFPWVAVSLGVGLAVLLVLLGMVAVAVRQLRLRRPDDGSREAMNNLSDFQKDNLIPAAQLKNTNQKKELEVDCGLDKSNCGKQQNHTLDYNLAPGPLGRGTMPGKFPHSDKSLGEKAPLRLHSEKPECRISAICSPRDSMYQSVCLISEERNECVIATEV

[5] = target: T3, recombinant mouse DLL4 (C-terminally His-tagged extracellular domain, R&D Systems) (mouse, UniProt Q9JI71 27-532); assay: SPR (Biacore), rmDLL4
T3 construct: extracellular domain; also called rmDLL4; mDLL4

human Jagged-1 (Alexis) = target: T4, human Jagged-1 (Alexis) (human, UniProt P78504 34-1067, limits assumed); assay: binding ELISA on coated human Jagged-1 (Example 5.8, Example 7), OD 405 nm
T4 construct: also called hJag-1; hJAG1

[6] = target: T3, recombinant mouse DLL4 (C-terminally …); assay: binding ELISA on coated recombinant mouse DLL4 (Example 5.8, Example 7), OD 450 nm
[7] = target: T5, human DLL4 expressed on cells (CHO-hDLL4; HEK293-hDLL4) (human, UniProt Q9NR61 27-685); assay: FACS; summary table, column taken as hDLL4
T5 construct: full length human DLL4 overexpressed on CHO cells (FMAT, FACS) or HEK293 cells (reporter assay)

[8] = target: T6, recombinant human DLL4 (C-terminally His-tagged extracellular domain, R&D Systems) (human, UniProt Q9NR61 25-522, biotinylated in the competition ELISA); assay: SPR (Biacore), rhDLL4
T6 construct: also called rhDLL4; hDLL4
Method: (§1) Kinetic analysis to determine the affinity of the DII4-VHH interaction is performed by Surface Plasmon Resonance (SPR) on a Biacore T100 instrument. […] Purified VHHs or Fab fragment are injected for 2 minutes at different concentrations (between 10 and 300 nM) and allowed to dissociate for 20 min at a flow rate of 45 μl/min. Between sample injections, the surfaces are regenerated with 10 mM glycine pH1.5 and 100 mM HCl. HBS-N (Hepes buffer pH7.4) is used as running buffer. If possible, data are evaluated by fitting a 1:1 interaction model (Langmuir binding) onto the binding curves. The affinity constant KD is calculated from resulting association and dissociation rate constants (kₐ) and […].

[9] = target: T2, cynomolgus DLL4 expressed on CHO cells; assay: FACS; summary table, column taken as cDLL4
human DLL1 (Alexis) = target: T7, human DLL1 (Alexis) (human, UniProt O00548 18-545, limits assumed); assay: binding ELISA on coated human DLL1 (Example 5.8, Example 7), OD 450 nm
T7 construct: also called hDLL1
T7 sequence (looked up): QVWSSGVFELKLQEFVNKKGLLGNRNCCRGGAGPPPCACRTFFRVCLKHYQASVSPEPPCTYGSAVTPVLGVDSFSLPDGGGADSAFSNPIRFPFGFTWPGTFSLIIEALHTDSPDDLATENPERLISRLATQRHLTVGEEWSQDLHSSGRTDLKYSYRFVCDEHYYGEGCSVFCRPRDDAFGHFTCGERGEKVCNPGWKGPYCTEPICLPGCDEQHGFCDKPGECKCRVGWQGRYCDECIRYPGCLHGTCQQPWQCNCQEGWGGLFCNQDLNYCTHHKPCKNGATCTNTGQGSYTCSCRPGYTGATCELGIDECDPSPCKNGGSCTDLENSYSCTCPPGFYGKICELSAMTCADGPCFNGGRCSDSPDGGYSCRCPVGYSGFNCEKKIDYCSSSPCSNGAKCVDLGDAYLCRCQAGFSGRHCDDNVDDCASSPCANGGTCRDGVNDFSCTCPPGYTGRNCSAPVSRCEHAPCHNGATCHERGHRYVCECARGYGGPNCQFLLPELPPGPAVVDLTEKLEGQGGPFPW

[10] = target: T6, recombinant human DLL4 (C-terminally …); assay: binding ELISA on coated recombinant human DLL4 (Example 5.8, Example 7), OD 450 nm
[11] = target: T6, recombinant human DLL4 (C-terminally …); assay: competition ELISA hDLL4/hNotch1-Fc; summary table
[12] = target: T5, human DLL4 expressed on cells …; assay: competition FMAT CHO-hDLL4; summary table
[13] = target: T5, human DLL4 expressed on cells …; assay: cell-based or functional assay
[14] = target: T3, recombinant mouse DLL4 (C-terminally …); assay: SPR (Biacore); summary table
[15] = target: T6, recombinant human DLL4 (C-terminally …); assay: SPR (Biacore); summary table
[16] = target: T5, human DLL4 expressed on cells …; assay: competition FMAT, labelled hNotch1-Fc on CHO-hDLL4 cells
[17] = target: T6, recombinant human DLL4 (C-terminally …); assay: competition ELISA, biotinylated hDLL4 to coated hNotch1-Fc
[18] = target: T8, mouse DLL4 expressed on CHO cells (mouse, UniProt Q9JI71 27-686); assay: competition FMAT CHO-mDLL4; summary table
T8 construct: whole, on cells; also called mDLL4; CHO-mDLL4

[19] = target: T5, human DLL4 expressed on cells …; assay: FACS on CHO-hDLL4 cells
[20] = target: T8, mouse DLL4 expressed on CHO cells; assay: competition FMAT, labelled hNotch1-Fc on CHO-mDLL4 cells
[21] = target: T8, mouse DLL4 expressed on CHO cells; assay: as above; remark: listed apart in the source
[22] = target: T5, human DLL4 expressed on cells …; assay: competition FMAT, labelled hNotch1-Fc on CHO-hDLL4 cells; remark: listed apart in the source
[23] = target: T6, recombinant human DLL4 (C-terminally …); assay: SPR (Biacore), recombinant human DLL4
Method: as §1

[24] = target: T5, human DLL4 expressed on cells …; assay: cell-based or functional assay; remark: listed apart in the source
[25] = target: T6, recombinant human DLL4 (C-terminally …); assay: cell-based or functional assay

T3 sequence (Q9JI71 27-532): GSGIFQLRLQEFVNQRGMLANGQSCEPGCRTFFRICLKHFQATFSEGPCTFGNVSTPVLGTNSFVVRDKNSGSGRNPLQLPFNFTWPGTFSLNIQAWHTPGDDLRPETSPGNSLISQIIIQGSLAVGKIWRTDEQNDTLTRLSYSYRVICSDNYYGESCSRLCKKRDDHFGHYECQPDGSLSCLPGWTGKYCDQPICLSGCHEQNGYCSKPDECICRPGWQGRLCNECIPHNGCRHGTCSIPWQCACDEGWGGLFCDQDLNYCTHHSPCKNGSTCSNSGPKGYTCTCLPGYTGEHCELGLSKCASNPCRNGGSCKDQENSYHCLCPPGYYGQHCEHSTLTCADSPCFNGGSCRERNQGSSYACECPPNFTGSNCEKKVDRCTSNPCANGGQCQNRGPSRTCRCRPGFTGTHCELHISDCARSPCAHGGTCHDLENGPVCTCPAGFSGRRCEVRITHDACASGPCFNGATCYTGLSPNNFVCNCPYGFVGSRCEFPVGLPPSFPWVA
T8 sequence (Q9JI71 27-686): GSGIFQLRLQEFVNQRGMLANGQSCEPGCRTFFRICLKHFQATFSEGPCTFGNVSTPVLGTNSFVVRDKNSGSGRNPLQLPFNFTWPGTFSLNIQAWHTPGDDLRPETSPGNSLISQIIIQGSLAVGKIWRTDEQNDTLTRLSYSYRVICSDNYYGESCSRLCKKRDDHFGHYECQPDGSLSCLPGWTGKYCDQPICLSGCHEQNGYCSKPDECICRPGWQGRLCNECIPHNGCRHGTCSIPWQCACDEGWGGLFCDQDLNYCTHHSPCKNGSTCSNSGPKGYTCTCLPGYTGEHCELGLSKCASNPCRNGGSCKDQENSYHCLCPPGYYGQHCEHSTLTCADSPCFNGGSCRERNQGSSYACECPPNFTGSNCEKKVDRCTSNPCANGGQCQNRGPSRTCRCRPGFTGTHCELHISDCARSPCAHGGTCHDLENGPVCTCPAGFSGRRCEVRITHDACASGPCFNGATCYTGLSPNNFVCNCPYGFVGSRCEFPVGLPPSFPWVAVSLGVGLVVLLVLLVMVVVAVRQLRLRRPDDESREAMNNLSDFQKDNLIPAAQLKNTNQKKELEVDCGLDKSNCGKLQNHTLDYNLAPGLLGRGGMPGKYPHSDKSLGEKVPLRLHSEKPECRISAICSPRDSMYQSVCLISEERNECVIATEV

- koff (recombinant human DLL4 [1]): 0.00092 s⁻¹
- % inh (recombinant human DLL4 [2]): 86%
- % inh (recombinant human DLL4 [3]): 75%
B1: DLLBII33C05 (VHH)
VHH: EVQLVESGGGLVQAGGSLRLSCAASGFTLDNYVIGWFRQAPGKEREEVSCISSSGGSTDYLDSVKGRFTISRDNAKNTVYLQMNSLKPEDTAVYYCAADSLPCYYDKMVYDYWGQGTQVTVSS

- EC50 [4]: 13.8 nM
- Kd [5]: 53 nM
- koff [5]: 0.0091 s⁻¹
- kon [5]: 170000 M⁻¹ s⁻¹
- EC50 (read off the curve) [6]: ~10 nM
- EC50 [7]: 11.3 nM
- Kd [8]: 16 nM
- koff [8]: 0.004 s⁻¹
- kon [8]: 250000 M⁻¹ s⁻¹
- EC50 [9]: 13.8 nM
- EC50 (read off the curve) [10]: ~2 nM
- IC50 [11]: 7.5 nM
- IC50 [12]: 107 nM
- IC50, DLL4-mediated reporter assay [13]: 1340 nM
- Kd [14]: 53 nM
- Kd [15]: 16 nM
- IC50 [16]: 107 nM
- IC50 [17]: 7.5 nM
- IC50 [18]: 349 nM
- EC50 [19]: 11.3 nM
- IC50 [20]: 349 nM
B2: DLLBII115A05 (VHH, not shown: small tags and cut ends)
VHH: EVQLVESGGGLVQPGGSLRLSCAASGFTFGSYDMSWVRRSPGKGPEWVSSINSGGGSTYYADFVKGRFTISRDNAKNTLYLQMNSLKPEDTAVYYCAADRYIRARQGDYWGAYEYDYWGQGTQVTVSS
notes: parent VHH; also called 115A05 (wt); 115A5
- binding result (human Jagged-1 (Alexis)): no binding (tested: log[M] -6.1 (about 8e-7 M))
- binding result (human DLL1 (Alexis)): no binding (tested: log[M] -6.1 (about 8e-7 M))

- IC50 [21]: 43.8 nM
- IC50 [22]: 6.2 nM
- Kd [23]: 1.8 nM
- koff [23]: 0.00081 s⁻¹
- kon [23]: 450000 M⁻¹ s⁻¹
- IC50, DLL4-mediated reporter assay (hDLL4) [24]: 16 nM
- IC50, DLL4-mediated HUVEC proliferation assay [25]: 14.4 nM
- Inhibition (%), DLL4-mediated HUVEC proliferation assay [25]: 100%
B3: DLLBII039 (VHH, not shown: small tags and cut ends)
VHH: EVQLVESGGGLVQPGGSLRLSCAASGFTIGSYDMSWVRRAPGKGPEWVSSISSGGGSTYYADYVKGRFTISRDNAKNTLYLQMNSLRPEDTAVYYCAADRYIWARQGEYWGAYEYDYWGQGTLVTVSS

- IC50 [21]: 44.7 nM
- IC50 [22]: 9.7 nM
- Kd [23]: 0.8 nM
- koff [23]: 0.00055 s⁻¹
- kon [23]: 660000 M⁻¹ s⁻¹
- IC50, DLL4-mediated reporter assay (hDLL4) [24]: 78 nM
- IC50, DLL4-mediated HUVEC proliferation assay [25]: 7.6 nM
- Inhibition (%), DLL4-mediated HUVEC proliferation assay [25]: 100%
B4: DLLBII036 (VHH, not shown: small tags and cut ends)
VHH: EVQLVESGGGLVQPGGSLRLSCAASGFTFGSYDMSWVRRAPGKGPEWVSSISSGGGSTYYADYVKGRFTISRDNAKNTLYLQMNSLRPEDTAVYYCAADRYIWARQGEYWGAYEYDYWGQGTLVTVSS

- koff (recombinant human DLL4 [1]): 0.00049 s⁻¹
- % inh (recombinant human DLL4 [2]): 98%
- % inh (recombinant human DLL4 [3]): 98%
B5: DLLBII19F12 (VHH)
VHH: EVQLVESGGGLVQAGGSLRLSCTASGSTFTSYAMGWYRQAPGKQRELVAAISSDDSTYYADCVKGRFTISRDNAKNTVYLQMNSLKPEDTAVYYCNAPHSDYDEEAPSDFGSWGQGTQVTVSS

- IC50 [21]: 15.4 nM
- IC50 [22]: 11 nM
- Kd [23]: 0.2 nM
- koff [23]: 9.4e-05 s⁻¹
- kon [23]: 450000 M⁻¹ s⁻¹
- IC50, DLL4-mediated reporter assay (hDLL4) [24]: 136 nM
- IC50, DLL4-mediated HUVEC proliferation assay [25]: 5.3 nM
- Inhibition (%), DLL4-mediated HUVEC proliferation assay [25]: 100%
B6: DLLBII018 (VHH, not shown: small tags and cut ends)
VHH: EVQLVESGGGLVQPGGSLRLSCAASGRTFSSYAMAWYRQAPGKEREYVAAIRWSGGTAYYADSVKGRFTISRDNAKNTVYLQMNSLRPEDTAVYYCANRAPDTRLAPYEYDHWGQGTLVTVSS

- koff (recombinant human DLL4 [1]): 0.0075 s⁻¹
- % inh (recombinant human DLL4 [2]): 23%
- % inh (recombinant human DLL4 [3]): 54%
B7: DLLBII28B06 (VHH)
VHH: EVQLVESGGGLVQAGGSLRLSCAASGSTFSTYAMGWYRQDPGNQRELVAAISSDGSTHYADSVKGRFTISRDNAKNTVYLQMNSLKPEDTAVYYCYAPVKVAGLEYDYWGQGTQVTVSS
